Test results reported in article PMC3273627 (Journal of Molecular Biology, 2011).

Biological target: actin filaments (UniProt P68135 1-377)
Test: co-sedimentation

B1: Dys ΔH2-R19 (other)
chain: MLWWEEVEDCYEREDVQKKTFTKWINAQFSKFGKQHIDNLFSDLQDGKRLLDLLEGLTGQKLPKEKGSTRVHALNNVNKALRVLQKNNVDLVNIGSTDIVDGNHKLTLGLIWNIILHWQVKNVMKTIMAGLQQTNSEKILLSWVRQSTRNYPQVNVINFTSSWSDGLALNALIHSHRPDLFDWNSVVSQHSATQRLEHAFNIAKCQLGIEKLLDPEDVATTYPDKKSILMYITSLFQVLPQQVSIEAIQEVEMLPRTSSKVTREEHFQLHHQMHYSQQITVSLAQGYEQTSSSPKPRFKSYAFTQAAYVATSDSTQSPYPSQHLEAPRDKSLDSSLMETEVNLDSYQTALEEVLSWLLSAEDTLRAQGEISNDVEEVKEQFHAHEGFMMDLTSHQGLVGNVLQLGSQLVGKGKLSEDEEAEVQEQMNLLNSRWECLRVASMEKQSKLHKVLMDLQNQKLKELDDWLTKTEERTKKMEEEPFGPDLEDLKCQVQQHKVLQEDLEQEQVRVNSLTHMVVVVDESSGDHATAALEEQLKVLGDRWANICRWTEDRWIVLQDILLKWQHFTEEQCLFSTWLSEKEDAMKNIQTSGFKDQNEMMSSLHKISTLKIDLEKKKPTMEKLSSLNQDLLSALKNKSVTQKMEIWMENFAQRWDNLTQKLEKSSAQISQPDRAPGLSTTGASASQTVTLVTQSVVTKETVISKLEMPSSLLLEVPALADFNRAWTELTDWLSLLDRVIKSQRVMVGDLEDINEMIIKQKATLQDLEQRRPQLEELITAAQNLKNKTSNQEARTIITDRIERIQIQWDEVQEQLQNRRQQLNEMLKDSTQWLEAKEEAEQVIGQVRGKLDSWKEGPHTVDAIQKKITETKQLAKDLRQRQISVDVANDLALKLLRDYSADDTRKVHMITENINTSWGNIHKRVSEQEAALEETHRLLQQFPLDLEKFLSWITEAETTANVLQDASRKEKLLEDSRGVRELMKPWQDLQGEIETHTDIYHNLDENGQKILRSLEGSDEAPLLQRRLDNMNFKWSELQKKSLNIRSHLEASSDQWKRLHLSLQELLVWLQLKDDELSRQAPIGGDFPAVQKQNDIHRAFKRELKTKEPVIMSTLETVRIFLTEQPLEGLEKLYQEPRELPPEERAQNVTRLLRKQAEEVNAEWDKLNLRSADWQRKIDEALERLQELQEAADELDLKLRQAEVIKGSWQPVGDLLIDSLQDHLEKVKALRGEIAPLKENVNRVNDLAHQLTTLGIQLSPYNLSTLEDLNTRWRLLQVAVEDRVRQLHEAHRDFGPASQHFLSTSVQGPWERAISPNKVPYYINHETQTTCWDHPKMTELYQSLADLNNVRFSAYRTAMKLRRLQKALCLDLLSLSAACDALDQHNLKQNDQPMDILQIINCLTTIYDRLEQEHNNLVNVPLCVDMCLNWLLNVYDTGRTGRIRVLSFKTGIISLCKAHLEDKYRYLFKQVASSTGFCDQRRLGLLLHDSIQIPRQLGEVASFGGSNIEPSVRSCFQFANNKPEIEAALFLDWMRLEPQSMVWLPVLHRVAAAETAKHQAKCNICKECPIIGFRYRSLKHFNYDICQSCFFSGRVAKGHKMHYPMVEYCTPTTSGEDVRDFAKVLKNKFRTKRYFAKHPRMGYLPVQTVLEGDNMETPVTLINFWPVDSAPASSPQLSHDDTHSRIEHYASRLAEMENSNGSYLNDSISPNESIDDEHLLIQHYCQSLNQDSPLSQPRSPAQILISLESEERGELERILADLEEENRNLQAEYDRLKQQHEHKGLSPLPSPPEMMPTSPQSPRDAELIAEAKLLRQHKGRLEARMQILEDHNKQLESQLHRLRQLLEQPQAEAKVNGTTVSSPSTSLQRSDSSQPMLLRVVGSQTSESMGEEDLLSPPQDTSTGLEEVMEQLNNSFPSSRGRNAPGKPMREDTM
For B1, the Kd was 3.53 µM.
